* marks the point of attachment. BODIPYFLEthylmaleimide = Cc1cc(C)n2c1C=C1C=CC(CCC(=O)NCCN3C(=O)CC(*)C3=O)=[N+]1[B-]2(F)F
T1: CC2 (WT) (murine, N-terminal acetyl group; C-terminal amide)
T1 construct: Forms a trimer at 10 uM in gel filtration; also called CC2 peptide; CC2 wild type
T1 peptide: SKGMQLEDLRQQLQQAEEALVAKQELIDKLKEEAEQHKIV


Legend:
[1] = biological target: the molecule itself; experiment: gel filtration (Superdex 75), self-association
Description: The oligomeric states of peptides were determined by filtration as described in Traincard et al., 2003. In brief, 500 μl samples were loaded on a SUPERDEX™ 75 HR 10/30 column equilibrated in 50 mM Tris-HCl pH 8.0 containing 200 mM NaCl and 0.1 mM DDM, at a constant flow rate of 0.4 ml/min. The presence of the DDM detergent was added in the equilibrium buffer to minimize the adsorption in the column and to increase the peptide recovery. The column was calibrated in the same equilibrium buffer with blue dextran 2000 (void volume), dithioerythritol (total volume), bovine serum albumin (67 kDa, Rs=35.2 Å), ovalbumine (43 kDa, Rs=27.5 Å), chymotrypsinogen A (25 kDa, Rs=21.1 Å), ribonuclease A (13.7 kDa, Rs=16.4 Å), cytochrome C (12.4 kDa, Rs=17.7 Å) and aprotinin (6.5 KDa, Rs=13.5 Å).

[2] = biological target: T2, NEMO (NF-kB essential modulator), murine (murine, UniProt O88522 1-412); experiment: cell-based or functional assay
T2 sequence (O88522 other isoform, or with tags, fused parts or gaps): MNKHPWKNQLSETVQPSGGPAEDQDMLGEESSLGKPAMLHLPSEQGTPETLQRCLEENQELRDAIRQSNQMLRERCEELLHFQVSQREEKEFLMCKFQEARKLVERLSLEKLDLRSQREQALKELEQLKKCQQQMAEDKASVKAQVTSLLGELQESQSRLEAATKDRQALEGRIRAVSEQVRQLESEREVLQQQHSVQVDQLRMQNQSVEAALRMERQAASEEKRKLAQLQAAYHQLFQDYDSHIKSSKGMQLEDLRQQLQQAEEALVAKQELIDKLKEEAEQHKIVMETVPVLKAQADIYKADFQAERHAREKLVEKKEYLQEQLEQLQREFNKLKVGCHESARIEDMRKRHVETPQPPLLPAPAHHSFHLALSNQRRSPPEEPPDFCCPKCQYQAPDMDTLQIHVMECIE

[3] = biological target: T2, NEMO (NF-kB essential modulator), murine; experiment: cell-based or functional assay; remark: listed apart in the source
CC2 (WT) [4] = biological target: T1, CC2 (WT); experiment: fluorescence anisotropy, 1 µM BODIPY-Ant-CC2 titrated with 1-125 µM CC2
Description: (§1) (A) Direct titration of BODIPY-Ant-CC2 (1 μM) with CC2 by fluorescence anitropy. The concentration of CC2 was determined by amino acid analysis. Anisotropy values of BODIPY-Ant-CC2 in milliunits (mA) were plotted against an increasing concentration of the CC2 peptide. […] The two dashed lines represent a stoichiometric titration and intersect at an CC2 concentration of […]. Given the 1 μM concentration of the BODIPY-Ant-CC2, this gives a complex stoechiometrie of 0.8. (B) Direct titration of BODIPY-Ant-LZ (0.1 μM) with CC2 by fluorescence anitropy. The anisotropy values of the BODIPY-Ant-LZ alone (white bar) or in the presence of the CC2 peptide (30 μM, grey bar; 100 μM, black bar) are given in milliunits (mA).
(§2) Anisotropy measurements were performed with a PTI […]™ fluorometer equipped with polarizers for the excitation and emission beams. This instrument uses a PMT in the L-configuration. […] Steady-state fluorescence anisotropy was expressed as millianisotropy (mA) and was calculated according to the equations: (1) A=(IVV−GIVH)/(IVV+2GIVH); (2) G=IHV/IHH.; where A is anisotropy, G is a correction factor for wavelength-dependent distortion and I is the fluorescence intensity component (subscript referring to the vertical and horizontal positioning at the excitation and emission polarizers, respectively). […]

CC2 (WT) [5] = biological target: T1, CC2 (WT); experiment: fluorescence anisotropy, 1 µM BODIPY-Ant-CC2 titrated with CC2
Description: as §1, §2

| Binder | binding result [1] | IC 50 (inhibition of NF-κB activation pathway) [3] [nM] | other results |
| --- | --- | --- | --- |
| BODIPY-Ant-LZ (WT) (Synthetic peptide; elutes as a monomer in gel filtration at 10 uM) peptide: Ac-C(BODIPYFLEthylmaleimide)RQIKIWFQNRRMKWKKLKAQADIYKADFQAERHAREKLVEKKEYLQEQLEQLQREFNKL-NH2 | no binding (tested: 10 µM) | – | IC50 of inhibition of LPS-induced NF-κB activation (β-galactosidase reporter, 70Z3-C3 cells) [2]: 3000 nM; fold reduction of LPS-induced NF-κB activation at 10 µM peptide (stringent β-galactosidase assay, 70Z3-C3 cells) [2]: 5.8 fold |
| Ac-C(BODIPYFLEthylmaleimide)RQIKIWFQNRRMKWKKLKAQADIYKARFQAERHAREK-NH2 (SMILES CC[C@H](C)[C@H](NC(=O)[C@H](CC(=O)O)NC(=O)[C@H](C)NC(=O)[C@H](CCC(N)=O)NC(=O)[C@H](C)NC(=O)[C@H](CCCCN)NC(=O)[C@H](CC(C)C)NC(=O)[C@H](CCCCN)NC(=O)[C@H](CCCCN)NC(=O)[C@H](Cc1c[nH]c2ccccc12)NC(=O)[C@H](CCCCN)NC(=O)[C@H](CCSC)NC(=O)[C@H](CCCNC(=N)N)NC(=O)[C@H](CCCNC(=N)N)NC(=O)[C@H](CC(N)=O)NC(=O)[C@H](CCC(N)=O)NC(=O)[C@H](Cc1ccccc1)NC(=O)[C@H](Cc1c[nH]c2ccccc12)NC(=O)[C@@H](NC(=O)[C@H](CCCCN)NC(=O)[C@@H](NC(=O)[C@H](CCC(N)=O)NC(=O)[C@H](CCCNC(=N)N)NC(=O)[C@H](CSC1CC(=O)N(CCNC(=O)CCC2=[N+]3C(=Cc4c(C)cc(C)n4[B-]3(F)F)C=C2)C1=O)NC(C)=O)[C@@H](C)CC)[C@@H](C)CC)C(=O)N[C@@H](Cc1ccc(O)cc1)C(=O)N[C@@H](CCCCN)C(=O)N[C@@H](C)C(=O)N[C@@H](CCCNC(=N)N)C(=O)N[C@@H](Cc1ccccc1)C(=O)N[C@@H](CCC(N)=O)C(=O)N[C@@H](C)C(=O)N[C@@H](CCC(=O)O)C(=O)N[C@@H](CCCNC(=N)N)C(=O)N[C@@H](Cc1c[nH]cn1)C(=O)N[C@@H](C)C(=O)N[C@@H](CCCNC(=N)N)C(=O)N[C@@H](CCC(=O)O)C(=O)N[C@@H](CCCCN)C(N)=O) [BODIPY-Ant-NLM-DR] | – | 1100 | – |
| Ac-C(BODIPYFLEthylmaleimide)YGRKKRRQRRRLKAQADIYKARFQAERHAREK-NH2 (SMILES CC[C@H](C)[C@H](NC(=O)[C@H](CC(=O)O)NC(=O)[C@H](C)NC(=O)[C@H](CCC(N)=O)NC(=O)[C@H](C)NC(=O)[C@H](CCCCN)NC(=O)[C@H](CC(C)C)NC(=O)[C@H](CCCNC(=N)N)NC(=O)[C@H](CCCNC(=N)N)NC(=O)[C@H](CCCNC(=N)N)NC(=O)[C@H](CCC(N)=O)NC(=O)[C@H](CCCNC(=N)N)NC(=O)[C@H](CCCNC(=N)N)NC(=O)[C@H](CCCCN)NC(=O)[C@H](CCCCN)NC(=O)[C@H](CCCNC(=N)N)NC(=O)CNC(=O)[C@H](Cc1ccc(O)cc1)NC(=O)[C@H](CSC1CC(=O)N(CCNC(=O)CCC2=[N+]3C(=Cc4c(C)cc(C)n4[B-]3(F)F)C=C2)C1=O)NC(C)=O)C(=O)N[C@@H](Cc1ccc(O)cc1)C(=O)N[C@@H](CCCCN)C(=O)N[C@@H](C)C(=O)N[C@@H](CCCNC(=N)N)C(=O)N[C@@H](Cc1ccccc1)C(=O)N[C@@H](CCC(N)=O)C(=O)N[C@@H](C)C(=O)N[C@@H](CCC(=O)O)C(=O)N[C@@H](CCCNC(=N)N)C(=O)N[C@@H](Cc1c[nH]cn1)C(=O)N[C@@H](C)C(=O)N[C@@H](CCCNC(=N)N)C(=O)N[C@@H](CCC(=O)O)C(=O)N[C@@H](CCCCN)C(N)=O) [BODIPY-TAT-NLM-DR] | – | 1000 | – |
| Ac-C(BODIPYFLEthylmaleimide)RRRRRRRRRLKAQADIYKARFQAERHAREK-NH2 (SMILES CC[C@H](C)[C@H](NC(=O)[C@H](CC(=O)O)NC(=O)[C@H](C)NC(=O)[C@H](CCC(N)=O)NC(=O)[C@H](C)NC(=O)[C@H](CCCCN)NC(=O)[C@H](CC(C)C)NC(=O)[C@H](CCCNC(=N)N)NC(=O)[C@H](CCCNC(=N)N)NC(=O)[C@H](CCCNC(=N)N)NC(=O)[C@H](CCCNC(=N)N)NC(=O)[C@H](CCCNC(=N)N)NC(=O)[C@H](CCCNC(=N)N)NC(=O)[C@H](CCCNC(=N)N)NC(=O)[C@H](CCCNC(=N)N)NC(=O)[C@H](CCCNC(=N)N)NC(=O)[C@H](CSC1CC(=O)N(CCNC(=O)CCC2=[N+]3C(=Cc4c(C)cc(C)n4[B-]3(F)F)C=C2)C1=O)NC(C)=O)C(=O)N[C@@H](Cc1ccc(O)cc1)C(=O)N[C@@H](CCCCN)C(=O)N[C@@H](C)C(=O)N[C@@H](CCCNC(=N)N)C(=O)N[C@@H](Cc1ccccc1)C(=O)N[C@@H](CCC(N)=O)C(=O)N[C@@H](C)C(=O)N[C@@H](CCC(=O)O)C(=O)N[C@@H](CCCNC(=N)N)C(=O)N[C@@H](Cc1c[nH]cn1)C(=O)N[C@@H](C)C(=O)N[C@@H](CCCNC(=N)N)C(=O)N[C@@H](CCC(=O)O)C(=O)N[C@@H](CCCCN)C(N)=O) [BODIPY-R9-NLM-DR] | – | 900 | – |
| Ac-C(BODIPYFLEthylmaleimide)RRRRRRRLKAQADIYKARFQAERHAREK-NH2 (SMILES CC[C@H](C)[C@H](NC(=O)[C@H](CC(=O)O)NC(=O)[C@H](C)NC(=O)[C@H](CCC(N)=O)NC(=O)[C@H](C)NC(=O)[C@H](CCCCN)NC(=O)[C@H](CC(C)C)NC(=O)[C@H](CCCNC(=N)N)NC(=O)[C@H](CCCNC(=N)N)NC(=O)[C@H](CCCNC(=N)N)NC(=O)[C@H](CCCNC(=N)N)NC(=O)[C@H](CCCNC(=N)N)NC(=O)[C@H](CCCNC(=N)N)NC(=O)[C@H](CCCNC(=N)N)NC(=O)[C@H](CSC1CC(=O)N(CCNC(=O)CCC2=[N+]3C(=Cc4c(C)cc(C)n4[B-]3(F)F)C=C2)C1=O)NC(C)=O)C(=O)N[C@@H](Cc1ccc(O)cc1)C(=O)N[C@@H](CCCCN)C(=O)N[C@@H](C)C(=O)N[C@@H](CCCNC(=N)N)C(=O)N[C@@H](Cc1ccccc1)C(=O)N[C@@H](CCC(N)=O)C(=O)N[C@@H](C)C(=O)N[C@@H](CCC(=O)O)C(=O)N[C@@H](CCCNC(=N)N)C(=O)N[C@@H](Cc1c[nH]cn1)C(=O)N[C@@H](C)C(=O)N[C@@H](CCCNC(=N)N)C(=O)N[C@@H](CCC(=O)O)C(=O)N[C@@H](CCCCN)C(N)=O) [BODIPY-R7-NLM-DR] | – | 900 | – |
| BODIPY-Ant-CC2 (WT) (Synthetic peptide; elutes as a monomer in gel filtration at 10 uM; also called Ant-CC2 BODIPY peptide) peptide: Ac-C(BODIPYFLEthylmaleimide)RQIKIWFQNRRMKWKKSKGMQLEDLRQQLQQAEEALVAKQELIDKLKEEAEQHKIV-NH2 | no binding (tested: 10 µM) | – | Kd (CC2 (WT) [4]): 15200 nM; stoichiometry (CC2 (WT) [5]): 0.8; IC50 of inhibition of LPS-induced NF-κB activation (β-galactosidase reporter, 70Z3-C3 cells) [2]: 22000 nM; fold reduction of LPS-induced NF-κB activation at 10 µM peptide (stringent β-galactosidase assay, 70Z3-C3 cells) [2]: 1.7 fold |
| BODIPY-Ant-CC2 (Mu) (also called CC2 variant) peptide: Ac-C(BODIPYFLEthylmaleimide)RQIKIWFQNRRMKWKKSKGMQLEDLRQQGQQAEEAGVAKQELGDKLKEEAEQHKIV-NH2 | no binding (tested: 10 µM) | – | – |
| BODIPY-Ant-LZ (Mu) (Two L to S mutations at d positions; also called BODIPY-Ant LZ mutant) peptide: Ac-C(BODIPYFLEthylmaleimide)RQIKIWFQNRRMKWKKLKAQADIYKADFQAERHAREKLVEKKEYSQEQLEQSQREFNKL-NH2 | no binding (tested: 10 µM) | – | – |
| Ac-SKGMQLEDLRQQGQQAEEAGVAKQELGDKLKEEAEQHKIV-NH2 (As for CC2 (WT), the printed theoretical mass (3987.43 Da) fits residues 6-40 only; also called CC2 mutant) [CC2 (Mu)] | no binding (tested: 10 µM) | – | – |

From patent US20080207517A1 (INSTITUT PASTEUR, published 2008)
